Literature values, collected in publication PMC7174325.
Read-outs that look alike come from different tables or passages of the source. Values belong to the substance of their own block, whether it stands above or below them.

Legend:
BAD (Homo sapiens) [1] = target: BAD (Homo sapiens) (UniProt Q92934)
BAK (Homo sapiens) = BAK (Homo sapiens) (UniProt Q16611); experiment: ITC
BAX (Homo sapiens) = BAX (Homo sapiens) (UniProt Q07812); experiment: ITC
BAD (Homo sapiens) [2] = target: BAD (Homo sapiens) (UniProt Q92934); remark: listed apart in the source

Chain of BAD (Homo sapiens) (Q92934 whole entry): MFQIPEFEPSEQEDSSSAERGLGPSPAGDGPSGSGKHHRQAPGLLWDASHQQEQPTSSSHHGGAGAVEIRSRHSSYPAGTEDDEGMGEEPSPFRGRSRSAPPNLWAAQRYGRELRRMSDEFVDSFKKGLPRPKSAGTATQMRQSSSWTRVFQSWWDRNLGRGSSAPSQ
Chain of BCL-w (Q92843 2-193): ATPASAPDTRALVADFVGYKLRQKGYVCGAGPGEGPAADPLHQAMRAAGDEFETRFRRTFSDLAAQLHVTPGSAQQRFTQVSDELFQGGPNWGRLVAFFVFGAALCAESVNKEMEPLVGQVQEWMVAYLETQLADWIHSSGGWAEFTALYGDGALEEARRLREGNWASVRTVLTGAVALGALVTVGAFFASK
Chain of BAK (Homo sapiens) (Q16611 2-211): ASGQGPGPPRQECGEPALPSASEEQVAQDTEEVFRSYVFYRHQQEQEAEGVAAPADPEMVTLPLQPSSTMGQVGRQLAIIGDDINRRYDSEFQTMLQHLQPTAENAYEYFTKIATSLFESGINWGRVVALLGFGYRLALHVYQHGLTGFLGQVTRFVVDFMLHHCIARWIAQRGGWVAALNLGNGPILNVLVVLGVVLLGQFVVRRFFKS
Chain of BAX (Homo sapiens) (Q07812 whole entry): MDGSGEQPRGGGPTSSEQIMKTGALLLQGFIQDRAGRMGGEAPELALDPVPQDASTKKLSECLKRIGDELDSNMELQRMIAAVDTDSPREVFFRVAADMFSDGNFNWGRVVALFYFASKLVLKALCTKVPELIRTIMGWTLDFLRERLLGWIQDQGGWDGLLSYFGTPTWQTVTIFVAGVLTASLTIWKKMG
Chain of BCL-w monomer (Q92843 2-193): as the sequence (Q92843 2-193) above
Chain of BCL-w homodimer (Q92843 2-193): as above

- Kd (BAD (Homo sapiens) [1]): 14 nM
Substance: BCL-w monomer (from UniProt Q92843)

- Kd (BAK (Homo sapiens)): 114 nM
- Kd (BAX (Homo sapiens)): 22.9 nM
Substance: BCL-w (from UniProt Q92843)

- Kd (BAD (Homo sapiens) [2]): 150 nM
Substance: BCL-w homodimer (from UniProt Q92843)
